One experiment concerns the target T1, cyno PD-L1 (cyno (cynomolgus monkey), UniProt G7PSE7 19-239).
T1 construct: also called cynomolgus PD-L1
The experiment can be described thus: SPR (Biacore), cyno PD-L1. (In general: Surface plasmon resonance follows binding to a sensor surface in real time, without labels.)

For experiment [1], the target named is T2, human PD-L1 (Programmed Death Ligand-1), protein used in Biacore and ELISA (human, UniProt Q9NZQ7 19-239).
T2 construct: also called hPD-L1; CD274
The experiment can be described thus: SPR (Biacore), human PD-L1.

Experiment [2] deals with T2, human PD-L1 (Programmed Death …). The experiment can be described thus: ELISA, inhibition of binding of human CD80 (B7-1) to human PD-L1.
In experiment [3] the target is T3, human PD-L1 expressed on cells (hPD-L1-positive L2987 human lung carcinoma cells); L2987 xenograft and human … (human, UniProt Q9NZQ7 19-290). The experiment can be described thus: cell-based or functional assay.
The target in experiment [4] is T2, human PD-L1 (Programmed Death …). The experiment can be described thus: summary sentence on the binding data (Biacore); limit tied to E01 by Table 2.
Experiment [5] has the same target. Put plainly: method not stated (Table 1, binding properties of anti-PD-L1 Adnectins).
The target in experiment [6] is T3, human PD-L1 expressed on cells …. The experiment can be described thus: radiotracer binding to cells on ice, gamma counting. As for the experimental part:
After the incubation period, cell samples were centrifuged at 200×g and the supernatant was discarded. Cell pellets were resuspended in 1 mL PBS+0.5% BSA and the wash procedure repeated for a total of 3 washes. Following the final wash, cells were again centrifuged at 200×g and the supernatant was discarded. The radioactivity of the remaining cell pellets was then measured by gamma counter.

Experiment [7] addresses T2, human PD-L1 (Programmed Death …). The experiment can be described thus: summary sentence on the binding data (Biacore); limit tied to A02 by Table 2.
Experiment [8] concerns the target T3, human PD-L1 expressed on cells …. Put plainly: cell binding to human PD-L1 positive L2987 cells; Cys-capped form; Cys-capped form.

Some results are limits rather than exact numbers.

T2 sequence (Q9NZQ7 19-239 limits assumed): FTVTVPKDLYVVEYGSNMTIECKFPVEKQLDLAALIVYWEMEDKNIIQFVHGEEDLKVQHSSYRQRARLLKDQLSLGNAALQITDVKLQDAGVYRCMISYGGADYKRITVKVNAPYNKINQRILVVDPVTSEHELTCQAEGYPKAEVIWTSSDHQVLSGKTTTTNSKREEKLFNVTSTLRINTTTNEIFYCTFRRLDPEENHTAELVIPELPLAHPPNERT
T3 sequence (Q9NZQ7 19-290): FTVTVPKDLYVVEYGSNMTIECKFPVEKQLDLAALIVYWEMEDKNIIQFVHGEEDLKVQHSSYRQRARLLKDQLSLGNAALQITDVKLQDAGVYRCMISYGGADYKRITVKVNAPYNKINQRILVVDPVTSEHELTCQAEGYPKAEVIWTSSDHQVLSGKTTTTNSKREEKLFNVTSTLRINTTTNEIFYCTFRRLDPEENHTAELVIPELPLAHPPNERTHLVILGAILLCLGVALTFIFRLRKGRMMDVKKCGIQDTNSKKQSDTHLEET
T1 sequence (G7PSE7 entry or part of it): as the sequence (Q9NZQ7 19-239 limits assumed) above, with A33T, A34S, S62N, R68Q, Q82R, F173L, T185A, T192I, H215L counted along it

B1: ATI-966 (designed binder)
chain: MGVSDVPRDLEVVAATPTSLLISWHRFSSIMAYYRITYGETGGNSPVQEFTVAGSVNTATISGLKPGVDYTITVYAVTIHNVSFPISINYRTEIDKPSQHHHHHH
notes: 10Fn3 Adnectin
As for B1, in the experiment with cyno PD-L1, the Kd (usually the concentration at which binding is half-saturated) was found to be 0.038 nM. For the same molecule, in experiment [1], binding was put at a Kd of 0.028 nM, the koff (commonly a measure of how fast the partners let go of each other) came out at 6.9e-05 s⁻¹ and the kon (usually the second-order rate constant of association) is 2.5e+06 M⁻¹ s⁻¹. Besides, in experiment [2], the response was half-maximal at 0.028 nM (EC50).

B2: cold (unlabeled) A02 Adnectin (designed binder)
chain: EVVAATPTSLLISWSYDGPIDRYYRITYGETGGNSPVQEFTVPPDQKTATISGLKPGVDYTITVYAVRLEEAHYNREFPISINYRT
As for B2, the “PET uptake of ^64Cu-A02 in hPD-L1(+) L2987 relative to hPD-L1(-) HT-29 xenografts when co-injected with 3 mg/kg unlabeled A02 Adnectin” value in [3] came out at 1.04 fold.

B3: ATI-964 (designed binder)
chain: MGVSDVPRDLEVVAATPTSLLISWSYDGSIERYYRITYGETGGNSPVQEFTVPPDQKTATISGLKPGVDYTITVYAVRLEEAHYYRESPISINYRTEIDKPSQHHHHHH
notes: 10Fn3 Adnectin; also called parent of ADX_5322_A02
In the experiment with cyno PD-L1, B3 showed a Kd of 0.14 nM. In [1], this molecule registered a dissociation constant Kd of 0.21 nM, a koff of 7.7e-05 s⁻¹ and a kon of 360000 M⁻¹ s⁻¹. Also, the EC50 (usually the midpoint of the concentration-response curve) in [2] was determined as 0.041 nM.

B4: ADX_5417_E01 (designed binder)
chain: MGVSDVPRDLEVVAATPTSLLISWRAQLSPSFYYRITYGETGGNSPVQEFTVPNDVMTATISGLKPGVDYTITVYAVTTHGVYFYSPISINYRTPCHHHHHH
As for B4, in [1], binding was characterised by a dissociation constant (Kd) of 0.013 nM, the koff was 0.00026 s⁻¹ and the kon was 2e+07 M⁻¹ s⁻¹. In experiment [4], this molecule came in with a Kd below 0.1 nM.

B5: ATI-1420D05 (designed binder)
chain: MGVSDVPRDLEVVAATPTSLLISWTAYYSTIKYRITYGETGGNSPVQEFTVGPKHHATISGLKPGVDYTITVYAYNTKPGYHAHQISINYRTEIDKPSQHHHHHH
notes: 10Fn3 Adnectin
B5 had a Kd in experiment [5] of 9.5 nM.

B6: ATI-965 (designed binder)
chain: MGVSDVPRDLEVVAATPTSLLISWTAYDSVDKYYRITYGETGGNSPVQEFTVGPRHHTATISGLKPGVDYTITVYAVYHTEPGYHAHMPISINYRTEIDKPSQHHHHHH
notes: 10Fn3 Adnectin
In the case of B6, binding with cyno PD-L1 was characterised by a dissociation constant (Kd) of 0.8 nM. Besides, in experiment [1], the affinity, expressed as Kd, was 0.71 nM; the koff was 0.00033 s⁻¹; the kon amounted to 460000 M⁻¹ s⁻¹. The same molecule gave an EC50 in experiment [2] of 0.21 nM.

B7: ATI-1421E04 (designed binder)
chain: MGVSDVPRDLEVVAATPTSLLISWSYNGPIEYRITYGETGGNSPVQEFTVPDQQATISGLKPGVDYTITVYALEEAHYSRQSISINYRTEIDKPSQHHHHHH
notes: 10Fn3 Adnectin; also called AT1-1421E04
On to B7, for which the equilibrium dissociation constant (Kd) in experiment [5] turned out to be 5.6 nM.

B8: ^64Cu-A02-NODAGA (designed binder)
chain: GVSDVPRDLEVVAATPTSLLISWSYDGPIDRYYRITYGETGGNSPVQEFTVPPDQKTATISGLKPGVDYTITVYAVRLEEAHYNREFPISINYRTPC
modifications: C-terminal cysteine (of the added PC) linked to maleimide-NODAGA chelating ^64Cu
For B8, the “PET radiotracer uptake in hPD-L1(+) L2987 xenografts relative to hPD-L1(-) HT-29 xenografts in mice (final 10 minutes of the 2 h time-activity curve)” value in [3] is 3.05 fold.

B9: ^18F-A02 Adnectin ([^18F]-A02-4PEG-DBCO-FPPEGA) (designed binder)
chain: B8 chain
modifications: C-terminal cysteine linked to Maleamide-DBCO-FFP(18F) (maleimide-PEG4-DBCO clicked with [^18F]-FPPEGA)
As for B9, the “maximum radiotracer uptake ratio in hPD-L1(+) L2987 xenografts vs. hPD-L1(-) HT-29 xenografts (PET, mice)” value in [3] was 3.53 ratio.

B10: ATI-967 (designed binder)
chain: MGVSDVPRDLEVVAATPTSLLISWQGQLSPSFYYRITYGETGGNSPVQEFTVPVASGTATISGLKPGVDYTITVYAVTSHGIYFYAPISINYRTEIDKPSQHHHHHH
notes: 10Fn3 Adnectin; also called parent of ADX_5417_E01
The molecule B10 returned a Kd with cyno PD-L1 of 0.06 nM. Further, in experiment [1], the affinity, expressed as Kd, was 0.032 nM; the koff worked out at 6.7e-05 s⁻¹; the kon amounted to 2.1e+06 M⁻¹ s⁻¹.

B11: ATI-1420B09 (designed binder)
chain: MGVSDVPRDLEVVAATPTSLLISWHKFSSLMSYRITYGETGGNSPVQEFTVGSVNATISGLKPGVDYTITVYAIHNVGFISINYRTEIDKPSQHHHHHH
notes: 10Fn3 Adnectin
B11 came in with a Kd in [5] of 2.5 nM.

B12: ^64Cu-E01-NODAGA (designed binder)
chain: GVSDVPRDLEVVAATPTSLLISWRAQLSPSFYYRITYGETGGNSPVQEFTVPNDVMTATISGLKPGVDYTITVYAVTTHGVYFYSPISINYRTPC
modifications: C-terminal cysteine (of the added PC) linked to maleimide-NODAGA chelating ^64Cu
notes: Modified E01 (ADX_5417_E01 with N leader and C-terminal PC); also called ^64Cu-E01 anti-PD-L1 Adnectin
For B12, the “fold higher cell associated radioactivity against hPD-L1-negative HT-29 cells” value in [6] was determined as 44.6 fold.

B13: ADX_5322_A02 (designed binder)
chain: MGVSDVPRDLEVVAATPTSLLISWSYDGPIDRYYRITYGETGGNSPVQEFTVPPDQKTATISGLKPGVDYTITVYAVRLEEAHYNREFPISINYRTPCHHHHHH
Regarding B13, in [1], the dissociation constant (Kd) came to 0.228 nM, the koff is 0.00057 s⁻¹ and the association rate constant (kon) amounted to 2.5e+06 M⁻¹ s⁻¹. The Kd in experiment [7] is below 1 nM.

B14: ADX_5322_A02 (Cys-Capped) (designed binder)
chain: B13 chain
modifications: Cys-Capped (so in the source); capping group not stated
B14 had an EC50 in experiment [8] of 0.43 nM.

B15: ATI-968 (designed binder)
chain: MGVSDVPRDLEVVAATPTSLLISWIAPFYNVIYYRITYGETGGNSPVQEFTVPGTGYTATISGLKPGVDYTITVYAVTDGASIASYAFPISINYRTEIDKPSQHHHHHH
notes: 10Fn3 Adnectin; also called ADX_1760_C01
In the experiment with cyno PD-L1, B15 came in with a Kd of 0.11 nM. In experiment [1], this molecule returned a Kd of 0.16 nM, a koff of 0.00012 s⁻¹ and a kon of 750000 M⁻¹ s⁻¹. In experiment [2], this molecule gave an EC50 of 0.056 nM.

For the origin of these results see patent publication US20170258948A1 (Bristol-Myers Squibb, published 2017).
